Measured values taken from patent US20040175385A1 (University of California, published 2004).
Where two headings read alike, the source gives them in different places.

Legend:
[1] = target: BoNT/A HC, recombinant binding domain (C-terminal domain of the heavy chain) of botulinum neurotoxin type A (Clostridium botulinum, UniProt P0DPI0 860-1296); assay: SPR BIAcore, HC on chip, scFv in flow
[2] = target: T1, BoNT/A HC, recombinant binding domain (C-terminal domain of the heavy chain) of botulinum neurotoxin type A (Clostridium botulinum, UniProt P0DPI0 860-1296); assay: SPR BIAcore, IgG on chip, BoNT/A HC in flow
[3] = target: T1, BoNT/A HC, recombinant binding domain …
[4] = target: T1, BoNT/A HC, recombinant binding domain …; assay: SPR BIAcore, Hc on chip, scFv in flow
[5] = target: T1, BoNT/A HC, recombinant binding domain …; assay: SPR BIAcore, HC on chip, scFv in flow; remark: listed apart in the source
[6] = target: T1, BoNT/A HC, recombinant binding domain …; assay: SPR BIAcore, scFv column of Table 6

Binder | Kd [2] | koff [2] | kon [2] | Kd [4] | koff [4] | kon [4] | Kd [5] | koff [5] | kon [5] | Kd [6] | koff [6] | kon [6] | other results
scFv 2B6 (human, non-immune library, Tables 9 and 10) (scFv) VKLVESGPGLVKPSQSLSLTCTVTGYSITSDYAWNWIRQFPGNKLEWMGYINYDGSNNYNPSLKNRISITRDTSKNQFFLKLNSVTSEDTATYYCARAGDGYYVDWYFDVWGTGTTVIVSSGGGGSGGGGSGGGGSYIELTQSPASLAVSLGQRATTSCRASESVDSYGNSFMHWYQQKPGQPPKLLIYLASNLESGVPARFSGSGSRTDFTLTIDPVEADDAATYYCQQNNEDPYTFGGGTKLEIKS |  |  |  |  |  |  |  |  |  |  |  |  | Kd [1]: 71.5 nM; koff [1]: 0.0078 s⁻¹; kon [1]: 109000 M⁻¹ s⁻¹
C25 IgG (chimeric IgG, murine V domains, human C domains) (antibody, V domains shown) VH: QVQLQESGGGLVKPGGSLKLSCAASGFTFSDYYMYWVRQTPEKRLEWVATISDGGSYTYYPDSVKGRFTISRDNAKNNLYLQMSSLKSEDTAMYYCSRYRYDDAMDYWGQGTTVTVSS VL: DIELTQSPASLAVSLGQRATISCRASESVDSYGHSFMQWYQQKPGQPPKLLIYRASNLEPGIPARFSGSGSGTDFTLTINPVEADDVATYYCQQSNEDPFTFGSGTKLEIKR | 1.69 nM | 0.00224 s⁻¹ | 1.32e+06 M⁻¹ s⁻¹ |  |  |  |  |  |  |  |  |  | Kd [3]: 11 nM
3D12 IgG (fully human IgG) (antibody, V domains shown) VH: QVQLVQSGGGVVHPGRSLKLSCAGSGFTFSDYDMHWVRQAPGKGLEWVAVMWFDGTEKYSAESVKGRFTISRDNSKNTLFLQMNSLRADDTAVYYCAREPDWLLWGDRGALDVWGQGTTVTVSS VL: DIVMTQSPSTLSASVGDRVTITCRASQSISSWLAWYQQKPGKAPKLLMYEASSLESGVPSRFSGSGSGTEFTLTISSLQPDDFAAYYCQHYNTYPYTFGQGTKLEIK | 0.0562 nM | 0.000127 s⁻¹ | 2.26e+06 M⁻¹ s⁻¹ |  |  |  |  |  |  |  |  |  | Kd [3]: 0.55 nM
scFv S25 (scFv) scFv: QVKLQQSGAELVRPGASVKLSCKASGYSLTSYWMNWVKQRPQGGLEWIGNIHPSDSDTRFNQKFEDKATLTVDTSSSTAYMQLSSPTSEDSAVYYCARGLYNGFWYFDVWGQGTTVTVSSGGGGSGGGGSGGGGSDIELTQSPALMAASPGEKVIITCSVSSSISSSNLHWYQQKSGTSPKPWIYGTSNLASQVPVRFSGSGSGTSYSLTISSMEAEDAATYYCQQWSSYPLTFGAGTKLEIKR |  |  |  | 73 nM | 0.00082 s⁻¹ | 11000 M⁻¹ s⁻¹ | 73 nM | 0.00082 s⁻¹ | 11000 M⁻¹ s⁻¹ | 73 nM | 0.00081 s⁻¹ | 11000 M⁻¹ s⁻¹ | 
scFv C39 (scFv) scFv: QVQLQESGGGSVKPGGSLKLSCAASGFTFSDYYMSWVRQTPEKRLEWVATISDGGSYTYYPDSVKGRFTISRDNAKNNLYLQMSSLKSEDTAIYYCVRYRYDEGLDYWGQGTTVTVSSGGGGSGGGGSGGGGSDIELTQSPASLAVSLGRRATISCRASESVDSYGHSFMHWYQQKPGQPPKLLIYLASNLESGVPARFSGSGSRTDFTLTIDPVEADDAATYYCQQNNEDPYTFGGGTKLEIKR |  |  |  | 2.3 nM | 0.00032 s⁻¹ | 140000 M⁻¹ s⁻¹ |  |  |  |  |  |  | 
scFv 3D12 (human, immune library) (scFv) scFv: QVQLVQSGGGVVHPGRSLKLSCAGSGFTFSDYDMHWVRQAPGKGLEWVAVMWFDGTEKYSAESVKGRFTISRDNSKNTLFLQMNSLRADDTAVYYCAREPDWLLWGDRGALDVWGQGTTVTVSSGGGGSGGGGSGGGGSDIVMTQSPSTLSASVGDRVTITCRASQSISSWLAWYQQKPGKAPKLLMYEASSLESGVPSRFSGSGSGTEFTLTISSLQPDDFAAYYCQHYNTYPYTFGQGTKLEIK |  |  |  |  |  |  | 36.9 nM | 0.0005 s⁻¹ | 13000 M⁻¹ s⁻¹ | 36.9 nM | 0.0005 s⁻¹ | 13000 M⁻¹ s⁻¹ | 
S25 IgG (chimeric IgG, murine V domains, human C domains) (antibody, V domains shown) VH: QVKLQQSGAELVRPGASVKLSCKASGYSLTSYWMNWVKQRPQGGLEWIGNIHPSDSDTRFNQKFEDKATLTVDTSSSTAYMQLSSPTSEDSAVYYCARGLYNGFWYFDVWGQGTTVTVSS VL: DIELTQSPALMAASPGEKVIITCSVSSSISSSNLHWYQQKSGTSPKPWIYGTSNLASQVPVRFSGSGSGTSYSLTISSMEAEDAATYYCQQWSSYPLTFGAGTKLEIKR | 3.9 nM | 0.0057 s⁻¹ | 1.46e+06 M⁻¹ s⁻¹ |  |  |  |  |  |  |  |  |  | 
scFv C25 (scFv) scFv: QVQLQESGGGLVKPGGSLKLSCAASGFTFSDYYMYWVRQTPEKRLEWVATISDGGSYTYYPDSVKGRFTISRDNAKNNLYLQMSSLKSEDTAMYYCSRYRYDDAMDYWGQGTTVTVSSGGGGSGGGGSGGGGSDIELTQSPASLAVSLGQRATISCRASESVDSYGHSFMQWYQQKPGQPPKLLIYRASNLEPGIPARFSGSGSGTDFTLTINPVEADDVATYYCQQSNEDPFTFGSGTKLEIKR |  |  |  | 1.1 nM | 0.00033 s⁻¹ | 300000 M⁻¹ s⁻¹ | 1.1 nM | 0.00033 s⁻¹ | 300000 M⁻¹ s⁻¹ | 1.1 nM | 0.00033 s⁻¹ | 300000 M⁻¹ s⁻¹ | 
scFv 1F3 (scFv) scFv: EVQLQQSGARLVKPGASVKLSCKASGYTFTSFWMHWVKQRPGRGLEWIGRLDPNSGETKYNEKFKSKATLTVDKPSSTAYMELSSLTSEDSAVYYCAREAYGYWNFDVWGTGTTVTVSSGGGGSGGGGSGGGGSDIELTQSPASMSASPGEKVTMTCRATSSVSSSYLHWYQQKSGASPKLWIYSASNLASGVPSRFSGSGSGTSYLSTISSVEAEDAATYYCQQYIGYPYTFGGGTKLEIKR |  |  |  | 12 nM | 0.011 s⁻¹ | 920000 M⁻¹ s⁻¹ |  |  |  |  |  |  | 
